Source: patent publication US20210087296A1 (published 2021)

molecular target: matrix metalloproteinase-14 catalytic domain (cdMMP-14) (UniProt P50281 114-287, biotinylated with EZ-Link Sulfo-NHS-LC-Biotin for ELISA; amine-coupled to CM5 chip for SPR); assay: ELISA

Row | EC50 | Binder
1 | 4 nM | Fab 3A2 (Fab, V domains shown) VH: EVQLVESGGGLVQPGGSLRLSCAASGFNLSSSSMHWVRQAPGKGLEWVASIYPSYSYTYYADSVKGRFTISADTSKNTAYLQMNSLRAEDTAVYYCARVKLQKDKSHQWIRNLVATPYGRYVMDYWGQGTLVTVSS VL: DIQMTQSPSSLSASVGDRVTITCRASQSVSSAVAWYQQKPGKAPKLLIYSASSLYSGVPSRFSGSRSGTDFTLTISSLQPEDFATYYCQQYGYPITFGQGTKVEIKR
2 | > 1000 nM | Fab R2C14 (Fab, V domains shown) VH: EVQLVESGGGLVQPGGSLRLSCAASGFNIYSSSIHWVRQAPGKGLEWVASIYSYSGYTYYADSVKGRFTISADTSKNTAYLQMNSLRAEDTAVYYCARVSNRYNRSSASIAGLQLFRPYGMDYWGQGTLVTVSS VL: DIQMTQSPSSLSASVGDRVTITCRASQSVSSAVAWYQQKPGKAPKLLIYSASSLYSGVPSRFSGSRSGTDFTLTISSLQPEDFATYYCQQSSYSLITFGQGTKVEIKR
3 | > 1000 nM | Fab R3C8 (Fab, V domains shown) VH: EVQLVESGGGLVQPGGSLRLSCAASGFNFSSSSIHWVRQAPGKGLEWVASIYPSYSYTYYADSVKGRFTISADTSKNTAYLQMNSLRAEDTAVYYCARHCLLRSRRCEMSTKTRELNVYRYAMDYWGQGTLVTVSS VL: DIQMTQSPSSLSASVGDRVTITCRASQSVSSAVAWYQQKPGKAPKLLIYSASSLYSGVPSRFSGSRSGTDFTLTISSLQPEDFATYYCQQWPVGSSYPITFGQGTKVEIKR
